Positions of bridges follow the written chain, without caps; N, C: chain ends. Non-standard residues stand in square brackets, D forms with d. No end group written: not given here. *: point of attachment. Biotin = O=C1N[C@H]2[C@H](CS[C@H]2CCCCC(=O)*)N1
What was measured:
[1] = target: T1, Duffy Antigen Receptor for Chemokines (DARC) (human), Q16570; test: Duffy binding against the LFL peptide
T1 chain: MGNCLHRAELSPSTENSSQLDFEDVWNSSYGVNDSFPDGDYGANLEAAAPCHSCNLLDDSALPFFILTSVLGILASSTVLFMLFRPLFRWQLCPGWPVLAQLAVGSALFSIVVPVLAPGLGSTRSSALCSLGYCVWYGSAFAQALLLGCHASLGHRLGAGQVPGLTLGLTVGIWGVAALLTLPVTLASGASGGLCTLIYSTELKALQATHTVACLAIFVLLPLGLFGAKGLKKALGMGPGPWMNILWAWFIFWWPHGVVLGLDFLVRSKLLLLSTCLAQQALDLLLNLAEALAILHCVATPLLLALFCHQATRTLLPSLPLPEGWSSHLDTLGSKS

CCR5 (human), P51681 = test: not stated; given as affinity constant
Sequence of CCR5 (human), P51681 (P51681 whole entry): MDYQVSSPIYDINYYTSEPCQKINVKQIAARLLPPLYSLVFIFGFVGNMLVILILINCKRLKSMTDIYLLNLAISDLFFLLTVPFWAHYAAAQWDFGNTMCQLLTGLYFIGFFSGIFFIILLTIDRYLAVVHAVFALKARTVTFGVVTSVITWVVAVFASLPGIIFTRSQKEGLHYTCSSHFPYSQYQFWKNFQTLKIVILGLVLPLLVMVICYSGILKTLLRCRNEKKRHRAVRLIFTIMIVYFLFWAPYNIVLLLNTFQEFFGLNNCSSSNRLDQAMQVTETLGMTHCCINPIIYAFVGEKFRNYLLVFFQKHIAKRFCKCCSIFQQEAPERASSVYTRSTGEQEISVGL

CXCR4 (human), P61073 = target: T2, CXCR4 (human), P61073; test: not stated; given as affinity constant
T2 chain: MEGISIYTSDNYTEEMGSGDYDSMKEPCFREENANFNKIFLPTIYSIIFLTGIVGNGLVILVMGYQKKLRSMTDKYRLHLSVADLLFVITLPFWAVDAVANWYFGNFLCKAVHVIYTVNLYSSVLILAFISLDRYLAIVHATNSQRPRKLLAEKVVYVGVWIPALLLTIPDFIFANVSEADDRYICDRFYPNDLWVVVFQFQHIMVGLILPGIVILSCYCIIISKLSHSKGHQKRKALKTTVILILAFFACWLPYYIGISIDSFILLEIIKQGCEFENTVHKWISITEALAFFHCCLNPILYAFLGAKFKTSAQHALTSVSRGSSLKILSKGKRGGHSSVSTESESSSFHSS

[2] = target: T1, Duffy Antigen Receptor for Chemokines …; test: Duffy binding; kind of constant not named
[3] = target: T1, Duffy Antigen Receptor for Chemokines …; test: Table 18, DARC binding (µM); method not restated
[4] = target: T3, Duffy Antigen Receptor for Chemokines (DARC) (human) (UniProt Q16570); test: Table 18, DARC binding (µM); >100 = ED50 not determined
T3 sequence (looked up): T1 chain

[5] = target: T3, Duffy Antigen Receptor for Chemokines (DARC) (human); test: estimated ka for binding to red blood cells divided by average inhibitory ED50 in THP-1 migration
[6] = target: chemokine receptors on THP-1 cells; test: binding to chemokine receptors on THP-1 cells; printed as Ka in concentration units
[7] = target: chemokine receptors on THP-1 cells; test: estimated ka for binding to THP-1 cells (column 'average ED50', peptide 2 family footnote)
[8] = target: chemokine receptors on the surface of Jurkat cells; test: binding to chemokine receptors on the surface of Jurkat cells; printed as Ka in concentration units
[9] = target: chemokine receptors on THP-1 cells; test: binding to THP-1 cells; printed as association constant in concentration units
[10] = target: chemokine receptors on THP-1 cells; test: comparison of DARC binding and THP-1 cells
[11] = target: chemokine receptors on THP-1 cells; test: biotinylated peptide 2 on THP-1 cells, streptavidin-peroxidase, with and without 100 µM peptide 3; given as affinity constant
[12] = target: T3, Duffy Antigen Receptor for Chemokines (DARC) (human); test: DARC binding; method not restated
[13] = target: T3, Duffy Antigen Receptor for Chemokines (DARC) (human); test: Table 18, DARC binding (µM); method not restated
[14] = target: T3, Duffy Antigen Receptor for Chemokines (DARC) (human); test: ka for binding to red blood cells divided by ka for binding to THP-1 cells
[15] = target: chemokine receptors on THP-1 cells; test: binding to chemokine receptors on THP-1 cells; given as association constant

Work on VAEKPCKSSTIRRYS (not fully specified (some residues)) [LRD peptide 2(1-15)[MCP-1]] yielded a gp120 ED-50 (chemokine receptors) of 3 µM, a fold decrease in Duffy binding against LFL peptide 2 [1] of 100 fold and a Kd (CCR5 (human), P51681) of less than 0.1 µM. It also gave a Kd (CXCR4 (human), P61073) of less than 0.1 µM, a Kd [2] of 25 µM and a DARC binding [3] of 18 µM.

With CPKEAV the DARC binding [4] was greater than 100 µM.

CADPKQKWVQ [Peptide 3(3-12)[MCP-1]] was tested, and the Duffy selectivity [5] was 1.21.

With SYRRITSSKCPKEAV [Peptide 2(1-15)[MCP-1]] the gp120 ED-50 (chemokine receptors) was 0.4 µM, the Kd [6] was 0.3 µM and the Kd [7] was 2 µM. For the same binder, the Kd [8] was 0.25 µM.

Binder EICADPKQKWVQ [Peptide 3(1-12)[MCP-1]] has a Kd [9] of 10 µM and a Duffy selectivity [5] of 1.

For [dC][dQ][dV][dW][dK][dQ][dK][dP][dD][dA][dC] (disulfide 1-11; not fully specified) [CRD-Cys13pep3[3-12]], the Duffy selectivity [5] was 8.82.

EICLDPKQKWIQ [Leu4Ile11peptide 3(1-12)[MCP-1]] gave a selectivity for receptors on THP-1 cells over DARC [10] greater than 20 fold.

EICADPSQKWVQ [Ser7peptide 3(1-12)[MCP-1]] showed a Duffy selectivity [5] of 2.

Biotin-SYRRITSSKCPKEAV [N-terminal biotin-labeled derivative of peptide 2(1-15)[MCP-1]] showed a Kd [11] of 250 µM.

For ELRVIESGPHCANTEI [Pep2(1-16)[IL8]], the Kd [7] was 1 to 10 µM.

EICADP [Peptide 3(1-6)[MCP-1]] showed a Duffy selectivity [5] of 5.32.

[dC][dV][dA][dE][dK][dP][dS][dK][dS][dS][dT][dI][dR][dR][dY][dS][dC] (cysteine pairing not given here) [LRD Cys0Ser10Cys16 derivative of peptide 2(1-15)[MCP-1]] was tested, and the DARC binding [4] was greater than 100 µM.

In the case of SYRRITSSKSPKEAV [Ser10 variant of peptide 2(1-15)[MCP-1]], the DARC binding [12] is reported as 20 to 100 µM.

For HLKILNTPNCALQIV [Pep2(1-15)[SDF1]], the gp120 ED-50 (chemokine receptors) was 35 µM, the DARC binding [13] was 19 µM and the Duffy selectivity [14] was less than 1. For the same binder, the Kd [7] was 1 to 10 µM.

Binder EICADPSEEWVQ (not fully specified) [Ser7Glu8Glu9peptide 3(1-12)[MCP-1]] has a Duffy selectivity [5] of 0.59.

Work on DYFETSSQCSKPGV [Pep2(1-14)[MIP1α]] yielded a gp120 ED-50 (chemokine receptors) greater than 100 µM, a Kd [15] of 0.1 to 0.9 µM and a Kd [7] of 1 to 10 µM.

Work on KQKWVQ [Peptide 3(7-12)[MCP-1]] yielded a Duffy selectivity [5] of 2.94.
